From publication PMC3314614, “The Tandem CARDs of NOD2: Intramolecular Interactions and Recognition of RIP2” (PLoS ONE, 2012)

How the values were obtained:
[1] = molecular target: Pop1 PYD (Homo sapiens) (UniProt Q8WXC3); details: cited from earlier work
[2] = molecular target: NOD2-CARDb (isolated) (human) (UniProt Q9HC29); assay: ITC; CARDa in the syringe, CARDb in the cell; 30°C; 50 mM Tris-HCl, 50 mM NaCl, 2 mM DTT, pH 7.5
[3] = molecular target: NOD2-CARDb (isolated) (human) (UniProt Q9HC29); assay: ITC; CARDa in the syringe, CARDb in the cell; 30°C; 50 mM Tris-HCl, 250 mM NaCl, 2 mM DTT, pH 7.5
[4] = molecular target: NOD2-CARDb (isolated) (human) (UniProt Q9HC29); assay: ITC; CARDa in the syringe, CARDb in the cell; 30°C; 50 mM Tris-HCl, 500 mM NaCl, 2 mM DTT, pH 7.5
[5] = molecular target: NOD2-CARDb (isolated) (human) (UniProt Q9HC29); assay: ITC; CARDa in the syringe, CARDb in the cell; 30°C; 50 mM Tris-HCl, 1000 mM NaCl, 2 mM DTT, pH 7.5
[6] = molecular target: NOD2-CARDb (isolated) (human) (UniProt Q9HC29); assay: ITC; CARDa in the syringe, CARDb in the cell; 18°C; 50 mM Tris-HCl, 100 mM NaCl, 2 mM DTT, pH 7.5; one-site model
[7] = molecular target: NOD2-CARDb (isolated) (human) (UniProt Q9HC29); assay: ITC; CARDa in the syringe, CARDb in the cell; 25°C; 50 mM Tris-HCl, 100 mM NaCl, 2 mM DTT, pH 7.5; one-site model
[8] = molecular target: NOD2-CARDb (isolated) (human) (UniProt Q9HC29); assay: ITC; CARDa in the syringe, CARDb in the cell; 30°C; 50 mM Tris-HCl, 100 mM NaCl, 2 mM DTT, pH 7.5; one-site model
[9] = molecular target: NOD2-CARDb (isolated) (human) (UniProt Q9HC29); assay: ITC; CARDa in the syringe, CARDb in the cell; 25°C; 50 mM Tris-HCl, 100 mM NaCl, 2 mM DTT, pH 7.5; one-site model; remark: listed apart in the source
[10] = molecular target: NOD2-CARDb (isolated) (human) (UniProt Q9HC29); assay: AUC; sedimentation velocity; individual samples and a 1:1 mixture of CARDa and CARDb; optical density 0.5 at 280 nm; SedFit
[11] = molecular target: Tube DD (Drosophila melanogaster) (UniProt P22812); details: cited from earlier work
Sequence of Tube DD (Drosophila melanogaster) (P22812 27-152): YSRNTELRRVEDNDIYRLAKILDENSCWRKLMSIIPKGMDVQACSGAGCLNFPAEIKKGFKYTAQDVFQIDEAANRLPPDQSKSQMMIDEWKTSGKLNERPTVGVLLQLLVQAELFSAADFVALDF

[12] = molecular target: caspase-1 CARD (Homo sapiens) (UniProt P29466); details: cited from earlier work
Sequence of caspase-1 CARD (Homo sapiens) (P29466 1-94): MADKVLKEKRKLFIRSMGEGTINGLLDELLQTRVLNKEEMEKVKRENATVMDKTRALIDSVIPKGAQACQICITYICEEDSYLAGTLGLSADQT

[13] = molecular target: T1, procaspase-9 CARD (UniProt P55211 1-92); assay: ITC; data not shown; at different temperatures; details: both partners purified
T1 construct: procaspase-9, CARD
T1 sequence (looked up): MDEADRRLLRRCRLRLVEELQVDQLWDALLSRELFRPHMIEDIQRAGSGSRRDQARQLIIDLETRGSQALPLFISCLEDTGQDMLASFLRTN

Sequence of Pop1 PYD (Homo sapiens) (Q8WXC3 whole entry): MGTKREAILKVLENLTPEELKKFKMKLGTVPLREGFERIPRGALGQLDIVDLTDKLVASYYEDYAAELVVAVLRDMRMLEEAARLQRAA

**Q.** Which Kd [1] does the source give for ASC PYD (from UniProt Q9ULZ3) here?
**A.** Its Kd is 4 µM.

**Q.** Which Kd [2] does the source give for “NOD2-CARDa (isolated, wild type) (from UniProt Q9HC29 28-119) (domain or fragment)” here?
**A.** Its Kd is 1090 nM.

**Q.** What about the dH [2] of the same molecule?
**A.** Its dH is -9 kcal/mol.

**Q.** And the stoichiometry N [2]?
**A.** Its stoichiometry N is 0.61.

**Q.** And the Kd [3]?
**A.** The Kd was 2990 nM.

**Q.** And the dH [3]?
**A.** Its dH is -5.5 kcal/mol.

**Q.** What about the stoichiometry N [3] of the same molecule?
**A.** Its stoichiometry N is 0.99.

**Q.** And the Kd [4]?
**A.** Its Kd is 6.25 µM.

**Q.** What about the dH [4] of the same molecule?
**A.** Its dH is -4.8 kcal/mol.

**Q.** And the stoichiometry N [4]?
**A.** Its stoichiometry N is 0.85.

**Q.** What about the Kd [5] of the same molecule?
**A.** Its Kd is 7.14 µM.

**Q.** What about the dH [5] of the same molecule?
**A.** Its dH is -2.6 kcal/mol.

**Q.** And the stoichiometry N [5]?
**A.** Its stoichiometry N is 0.78.

**Q.** What about the Kd [6] of the same molecule?
**A.** Its Kd is 1080 nM.

**Q.** And the dH [6]?
**A.** The dH was -2 kcal/mol.

**Q.** What about the stoichiometry N [6] of the same molecule?
**A.** The stoichiometry N was 0.84.

**Q.** And the Kd [7]?
**A.** The Kd was 880 nM.

**Q.** What about the dH [7] of the same molecule?
**A.** The dH was -4.7 kcal/mol.

**Q.** And the stoichiometry N [7]?
**A.** The stoichiometry N was 1.03.

**Q.** What about the Kd [8] of the same molecule?
**A.** Its Kd is 1410 nM.

**Q.** And the dH [8]?
**A.** The dH was -7.4 kcal/mol.

**Q.** What about the stoichiometry N [8] of the same molecule?
**A.** Its stoichiometry N is 0.91.

**Q.** And the Kd [9]?
**A.** Its Kd is 1100 nM.

**Q.** And the stoichiometry N [10]?
**A.** The stoichiometry N was 1.

**Q.** With “NOD2-CARDa E69K (isolated) (from UniProt Q9HC29 28-119) (domain or fragment)” as the molecule, how does the Kd [7] read?
**A.** The Kd was 720 nM.

**Q.** What about the dH [7] of the same molecule?
**A.** Its dH is -3.8 kcal/mol.

**Q.** And the stoichiometry N [7]?
**A.** Its stoichiometry N is 0.94.

**Q.** With “NOD2-CARDa E72K (isolated) (from UniProt Q9HC29 28-119) (domain or fragment)” as the molecule, how does the Kd [7] read?
**A.** The Kd was 330 nM.

**Q.** What about the dH [7] of the same molecule?
**A.** The dH was -5.2 kcal/mol.

**Q.** What about the stoichiometry N [7] of the same molecule?
**A.** The stoichiometry N was 0.81.

**Q.** Which Kd [7] does the source give for “NOD2-CARDa R86A (isolated) (from UniProt Q9HC29 28-119) (domain or fragment)” here?
**A.** Its Kd is 810 nM.

**Q.** And the dH [7]?
**A.** Its dH is -4.8 kcal/mol.

**Q.** What about the stoichiometry N [7] of the same molecule?
**A.** The stoichiometry N was 0.91.

**Q.** For Pelle DD (from UniProt Q05652), which Kd [11] is on record?
**A.** Its Kd is 500 nM.

**Q.** Which Kd [12] does the source give for RIP2 CARD (from UniProt O43353) here?
**A.** Its Kd is 1400 nM.

B1: Apaf-1 CARD (domain or fragment, UniProt O14727 1-90, looked up)
chain: MDAKARNCLLQHREALEKDIKTSYIMDHMISDGFLTISEEEKVRNEPTQQQRAAMLIKMILKKDNDSYVSFYNALLHEGYKDLAALLHDG
notes: Apaf-1, CARD
**Q.** For B1, which Kd [13] is on record?
**A.** Its Kd is 1000 to 4000 nM.
